Data reported in patent US20210283258A1.

Target: HER2 receptor (human) (UniProt P04626)
Experiment: cell-based or functional assay
Settings: scale: % greater uptake compared to the non-targeted nanoparticle

Herceptin®-PEG-nitroPBA targeted MAP-CPT nanoparticle (antibody)
cellular uptake in BT-474 cell line (CPT fluorescence of cell lysate, 30 min at 37° C.): 70
